pKd: −log10 of the molar value.
Target: human immunoglobulin G (hIgG) (human)
Test: sandwich ELISA, hIgG coated on plate, CD64 titrated, monovalent fit

pKd	Substance
10.27	Flag-CD64 (from UniProt P12314 16-374) (receptor)
10.34	recombinant wild-type CD64 (from UniProt P12314 16-374) (receptor)
